For this series, the system named is T1, DasR (Streptomyces lincolnensis NBRC_13054), ORF:7245352e.
T1 sequence: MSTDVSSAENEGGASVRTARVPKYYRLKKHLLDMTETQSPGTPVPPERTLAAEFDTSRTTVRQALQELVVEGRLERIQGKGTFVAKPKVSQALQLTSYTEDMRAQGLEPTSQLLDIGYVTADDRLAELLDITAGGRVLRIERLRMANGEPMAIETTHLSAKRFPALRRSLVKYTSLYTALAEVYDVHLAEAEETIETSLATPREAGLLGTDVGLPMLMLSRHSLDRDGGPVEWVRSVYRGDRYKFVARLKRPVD
In words: EMSA. Particulars: EMSA kit, 20 uL, 50 ng/uL Cy5 probe, 6% non-denaturing PAGE; fifth lane with 10 mg/mL salmon sperm DNA; buffer, pH, salt and temperature not given. In general terms: In EMSA bound probe runs differently from free probe, usually more slowly.
For “AGCCAGTGGCGATAAGAGGGCCTGGATGAGCTGCCTGTCCACCGCGTCCATGCGATCGAAGCCTTCCGATGAAGAGATCCCGAAGTGATGAGAGGTACTGCCCTGTGCCCTGCTGCTCTGTGCCGTGCTGCCCTGTGCCCTACTGCCCTGTGTCCTCTTATCGCCACTGGCT (double strand) [SLINC_4906 promoter]”, the binding result is on record as “no binding”.
As to “AGCCAGTGGCGATAAGTCACTCGGTCTTCCCGTCCGCCGGACCGCCAACCCCTACCTCGCCAGGGCCCTGGGATAGGCCGGCGGGCGGCGCCGCCCGTGACGCGTAGCTGCCCTGGACGAAGGAGGCCACGCGTCGGCCGCGCCACTCCTGCGGGGCGCCCGGGCCGAGCGCGGTGACCGTGCCGGGCTGCGTAGGCTCACAGACATGGCTGAGATCGGGCTGCGTGCTTATCGCCACTGGCT (double strand) [SLINC_3938 promoter]”, the binding result was “no binding”.
“AGCCAGTGGCGATAAGATGACTCAAAAGACTCTCCTCACCACACGCGCCACGTAACGGTGGGCACGTGGCGCGCATGACGTTCGTGCAGAAGCAGTTGTCGTTGTGGACGCAGGCACCGGTGGCCCGCTTATTCAGTTGTGAAGTCTGGTTGCGCGACGCGGCGCGCGAAGTCTGTTGCTAGAGCTCTTATCGCCACTGGCT (double strand) [SLINC_6156 promoter]”: the binding entry was “no binding”.
Consider “AGCCAGTGGCGATAAGATATCCTCTTTCCCCGGGAGAGCCGGTCCCCGTGGTTGTCGCGACGGATGCTGTGGGTCTTCGGCGGGGTGTTCGCCCTCGGTACGGCACTCTTCGCGCTGATTTCCCTCCTGCGGTCGGATTTCCGCCTCTCCGTGGTCGAGATCGGTGCGGTGCTCGCGATCGTGGGACTGCTGACCTGGGCCGCTTCACGCTGCCAGGCCCGAGACACACCGTGTGTACCGAAGCGACTGCCTGGGACGCTACGGGCCGGATGGACTTATCGCCACTGGCT (double strand) [lmrA promoter]”, for which the binding entry is “no binding”.
For the sequence “AGCCAGTGGCGATAAGGGTTCCTGCATATGTAGCTCGTATAACGGCTGGTCAGAGCCGTTCCAGCACTCTTGACAGGTGTATTGGCCTGGTCCAAGCTCCGGGTACTGGTCTACACCATTGGTCCAGGTCCCGGCTCCATGGGCGGGGGGTGTGGGCATCCCTGAGGAGGCTTATCGCCACTGGCT (double strand) [dasA promoter]”, the binding entry is “binds”.
For “AGCCAGTGGCGATAAGACGCACGTACGCAACTCCTTTCGGTTTCCCAGGAGTCACTCCCCGGTCCGGACGGGACATGAACTAATTCAGCTACTTATCGGTCAATCTTGAGCGCGTAGTGCCTTCATGTGGTCGGCAATGCCAGGTTCATGACATTCTCGAATGCTCGGCAATCACAGGCCCTACCGGCGGGGAGGACGCTGGTGGAGTTCGAGATCTTATCGCCACTGGCT (double strand) [SLINC_4481 promoter]” the value was “no binding”.
For “AGCCAGTGGCGATAAGGCTGGGCCTGCCGTTCTCAAGGGGCTGCACGGGGTGTGTGGTTTAGACCAATCCAGCCTCCAATCTAACAGAACCTCGCCCGGCCTCCCAGGTCTGCCGGGTGTCCCGGAGATGACCGGAAACCCTCGGCGAGGGCACCCCTCGCCCCGCGGTCCCTACGTCAGCGAACTTATCGCCACTGGCT (double strand) [nagB promoter]” the value was “binds”; for “AGCCAGTGGCGATAAGATGACATGTCTCACGGGGGACAGTGTGACCCCAGGACCCGCAAGAGGTCTAGTCCACTCACGTGGTGTAGACCTTAGGGCGGCAATATGTATGACCTTTCGAGAGTTTTTCGATCAGTGATCTTGAGGCGGTTGGCAGTGCGGCGGCGTAGGACTTATCGCCACTGGCT (double strand) [nagK promoter]”, “binds”.
